From patent US20220242963A1, “B-CELL ACTIVATING CD73 ANTIBODIES” (CORVUS PHARMACEUTICALS, INC., priority 2018, published 2022)

Columns and labels:
CD73 = molecular target: T1, CD73 (Homo sapiens, UniProt P21589); assay: CD73 catalytic activity in MDA-MB-231 cells (phosphate, Sensolyte Malachite Green); assay type: cell-based; settings: 250 μM AMP, FIG. 1B
T1 construct: endogenous in cells; host or cells: Whole blood of cancer patients (CD73+ CD8 T cells)
T1 sequence (P21589 27-549): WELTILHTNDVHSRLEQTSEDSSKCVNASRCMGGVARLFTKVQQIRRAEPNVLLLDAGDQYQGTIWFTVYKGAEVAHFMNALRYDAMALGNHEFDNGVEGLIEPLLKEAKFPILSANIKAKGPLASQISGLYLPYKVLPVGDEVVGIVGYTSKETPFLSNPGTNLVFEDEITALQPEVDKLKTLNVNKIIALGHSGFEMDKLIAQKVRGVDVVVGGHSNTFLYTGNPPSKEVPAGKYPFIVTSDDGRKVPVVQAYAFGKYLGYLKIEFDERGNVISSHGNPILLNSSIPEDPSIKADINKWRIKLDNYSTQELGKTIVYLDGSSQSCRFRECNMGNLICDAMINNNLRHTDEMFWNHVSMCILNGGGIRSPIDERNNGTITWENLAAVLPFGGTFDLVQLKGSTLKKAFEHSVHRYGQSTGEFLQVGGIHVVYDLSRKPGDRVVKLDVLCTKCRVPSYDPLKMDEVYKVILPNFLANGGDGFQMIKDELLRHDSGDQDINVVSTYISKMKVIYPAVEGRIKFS
Experimental: FIG. 1A provides a schematic of CD73 structure. […] Each symbol represents an independent donor.
MDA-MB-231 cells (e.g., available at ATCC® as HTB-26™) were incubated with a human IgG1 isotype control, CPI-006, CPX-016, or adenosine 5′-(α,β-methylene)diphosphate (also known as APCP, which is a small molecule inhibitor of CD73 enzymatic activity), prior to addition of 250 μM of adenosine monophosphate (AMP). Phosphate levels were measured in the cell culture supernatant using the Sensolyte Malachite Green assay kit. Peripheral blood mononuclear cells (PBMC) were isolated from healthy donors and labeled with CellTrace™ Violet (ThermoFisher Scientific) prior to culture with 1 μg/mL anti-CD3 and anti-CD28, 200 units/mL IL-2, 3 mM AMP and indicated treatments (CPI-006 at 500 nM; CPX-016 at 500 nM; human IgG1 isotype control at 890 nM). T cell proliferation was measured by Cell Trace Violet dilution and was defined by gating relative to unstimulated PBMC (FIG. 1C). IFN-gamma production was measured in cell culture supernatants by AlphaLISA (FIG. 1D). Results shown in FIGS. 1B-D illustrate that inhibition of CD73 activity has an agonistic effect on immunomodulatory activity.

B cells (CD19+CD3−) = assay: B cell activation in healthy donor PBMC, flow cytometry of surface markers / phospho ERK; assay type: cell-based, human
Description: With reference to FIGS. 2A-2E, each group of four bars from left to right represent data for: untreated donors, donors treated with human IgG1 isotype control, donors treated with BCR stimulation, and donors treated with CPI-006. The experiments for FIGS. 2A-2E are based on healthy donor PBMC treated overnight with flow cytometry analysis of surface markers on B cells (CD19^POS CD3^NEG). These lymphocyte markers are consistent with activation of B cells as well as other antigen presenting cell populations. […] The bar graph legend from top to bottom is representative of the data bars from left to right. […] For FIG. 2H the bar graph legend from top to bottom is representative of the data bars from left to right. For FIG. 2I the legend from top to bottom is representative of the data from top to bottom. […] For each group of four bars, the legend from top to bottom are representative of the bars from left to right.
PBMC were isolated from healthy donors and incubated with bead-bound anti-IgM, CPI-006 (10 μg/mL), or human IgG1 isotype control (10 μg/mL) overnight. Flow cytometry analysis was performed with gating on B cells (CD19+CD3−) and mean fluorescence intensity (MFI) was reported for staining with antibodies to the cell surface markers CD69, CD83, and CD25, as shown in FIGS. 2A-2C. PBMC were isolated from healthy donors and incubated with CPI-006, CPI-016, human IgG1 isotype control, and anti-human CD73 antibody, clone AD2 (available from Bio-Rad Antibodies) over a range of concentrations from about 0.1 μg/mL to more than 10 μg/mL. Flow cytometry analysis was performed with gating on B cells (CD19+CD3−) and mean fluorescence intensity (MFI) is reported for antibody staining of CD69, as shown in FIG. 2F. PBMC were isolated from healthy donors and incubated overnight with bead-bound anti-IgM or CPI-006 (1 μg/mL)+/−BTK inhibitor, ibrutinib (100 nM). Flow cytometry analysis was performed with gating on B cells (CD19+CD3−) and mean fluorescence intensity (MFI) is reported for antibody staining of CD69 and CD83, as shown in FIG. 2G. PBMC were isolated from healthy donors and incubated overnight with APCP (1 μM) or CPI-006 (1 μg/mL)+/−NECA (5′-N-ethylcarboxamidoadenosine). Flow cytometry analysis was performed with gating on B cells (CD19+CD3−) and mean fluorescence intensity (MFI) is reported for antibody staining of CD69, as shown in FIGS. 2H-2I. PBMC were isolated from healthy donors and incubated with the indicated treatments for 15 minutes. Flow cytometry analysis was performed with gating on the indicated cell populations and staining of phospho ERK was evaluated, as shown in FIG. 2J.

solid tumors = assay: Phase 1/1B clinical trial: disease control and tumor size; assay type: in vivo, human
Description: FIGS. 6A-6B show cancer patients being treated with various doses of CPI-006 alone (FIG. 6A) or a combination therapy of CPI-006 and ciforadenant (FIG. 6B). A cycle is once every 21 days. Disease assessment occurred every 3-4 cycles. […] HDNCK refers to head and neck cancer. mCRPC refers to metastatic castration-resistant prostate cancer. BLADD refers to bladder cancer. PANC refers to pancreatic cancer. COLORECT refers to colorectal cancer. RCC refers to renal cell carcinoma. SD indicates stable disease and PD indicates progressive disease.
The highest line at day 10 represents 1 mg/kg, the second highest line at day 10 represents 3 mg/kg, the second lowest line at day 10 represents 6 mg/kg, and the lowest line at day 10 represents 12 mg/kg.
Cancer patients treated with CPI-006 monotherapy or a combination therapy of CPI-006 and ciforadenant were assessed for disease control.

B1: CPI-006: humanized CD73 antibody, wherein the light chain is SEQ ID NO:8 and the heavy chain is SEQ ID NO:7; IgG1 Fcγ receptor-deficient (antibody, V domains shown)
VH: QVQLVQSGAEVEKPGASVKVSCKASGYTFTSYWITWVRQAPGQGLEWMGDIYPGSGNTNYNEKFKTRVTITADKSTSTAYMELSSLRSEDTAVYYCAKEGGLTTEDYALDYWGQGTLVTV
VL: EIVLTQSPATLSLSPGERATLSCRASKNVSTSGYSYMHWYQQKPGQAPRLLIYLASNLESGIPPRFSGSGYGTDFTLTINNIESEDAAYYFCQHSRELPFTFGQGTKVEIK
CD73
  adenosine production (CD73 catalytic activity): blocks adenosine production
B cells (CD19+CD3−); CPI-006 1 μg/mL, APCP 1 μM, overnight, FIGS. 2H-2I
  B cell activation (CD69, CD83) +/− NECA, versus APCP: independent of adenosine
B cells (CD19+CD3−); CPI-006 1 μg/mL, ibrutinib 100 nM, overnight, FIG. 2G
  B cell activation (CD69, CD83) +/− BTK inhibitor ibrutinib: via BTK
B cells (CD19+CD3−); PBMC overnight, CPI-006 10 μg/mL, gated on B cells, FIG. 2A
  expression of B cell activation marker CD69: induces expression
B cells (CD19+CD3−); PBMC overnight, CPI-006 10 μg/mL, gated on B cells, FIG. 2B
  expression of B cell activation marker CD83: induces expression
B cells (CD19+CD3−); PBMC overnight, CPI-006 10 μg/mL, gated on B cells, FIG. 2C
  expression of B cell activation marker CD25: induces expression
B cells (CD19+CD3−); PBMC overnight, gated on B cells, FIG. 2D
  antigen-presenting cell marker CD86: activates
B cells (CD19+CD3−); PBMC overnight, gated on B cells, FIG. 2E
  antigen-presenting cell marker MHC-II: activates
B cells (CD19+CD3−); PBMC, 15 minutes, FIG. 2J
  phospho-ERK signaling in B cells versus T cells: to a greater extent than in CD4+ T cells or CD8+ T cells
B cells (CD19+CD3−); about 0.1 μg/mL to more than 10 μg/mL, versus CPI-016, isotype control, AD2, FIG. 2F
  induction of B cell activation (CD69 MFI) compared with other antibodies: unique to CPI-006
B cells (CD19+CD3−); human B lymphocytes
  direct B cell activation: directly activates human B lymphocytes
Solid tumors; after 2 cycles of treatment, i.e., after 42 days, FIG. 7E
  size of a prostate tumor: reduction in the size
Solid tumors; cancer patients, cycle once every 21 days, FIGS. 6A-6B
  disease control: higher doses of CPI-006 monotherapy provide longer term disease control
Solid tumors; one metastatic prostate cancer patient, 6 mg/kg monotherapy, treatment ongoing through 11 cycles, FIG. 7E
  target lesion: decrease in the target legion
